Several values for one entry are separate records, joined by “and”; a condition that tells them apart may be missing. Equal values may be shown once.

The target in assay [1] is ErCry4a C317A (European robin (Erithacus rubecula)). Kind of assay: native MS.
Assay [2] concerns the target ErCry4a C412A (European robin (Erithacus rubecula)). The experiment in a line: native MS.
Assay [3] has as its target ErCry4a C412A+C317A (European robin (Erithacus rubecula)). Kind of assay: native MS.
The target of assay [4] is European robin cryptochrome 4a, wild type, with N-terminal 10xHis-tag (European robin (Erithacus rubecula)). The experiment in a line: mass photometry.
The target is the same in assay [5]. Kind of assay: native MS.
For assay [6] the target is unchanged. The experiment in a line: native MS. The source holds these as a separate data set.

For the substance ErCry4a C317A (natural protein), the stoichiometry N (commonly a count of units in the complex or per binding partner) in assay [1] is 2 and 3.

ErCry4a C412A (natural protein): the stoichiometry N in assay [2] is 2 and 3. For ErCry4a C412A+C317A (natural protein), the stoichiometry N in assay [3] is 2 and 3. Substance “European robin cryptochrome 4a, wild type, with N-terminal 10xHis-tag (natural protein)” registered a percent of counts in the dimer peak in assay [4] of 11%. Besides, the values for the stoichiometry N in assay [4], in assay [5] and in assay [6] were 2, 2 and 3, respectively.

Values taken from paper doi:10.1101/2023.04.11.536350.
